{"source": "paper PMC3376730", "about": "“Crystal structure of Caulobacter crescentus polynucleotide phosphorylase reveals a mechanism of RNA substrate channelling and RNA degradosome assembly” (Open Biology, 2012)", "binders": {"B1": {"name": "Caulobacter crescentus polynucleotide phosphorylase (enzyme, UniProt B8GWZ0 1-712, looked up)", "chain": "MFDIKRKTIEWGGKTLVLETGRIARQADGAVLATMGETVVLATAVFAKSQKPGQDFFPLTVNYQEKTFAAGKIPGGFFKREGRPSEKETLVSRLIDRPIRPLFVKGFKNEVQVVVTVLQHDLENDPDILGMVAASAALCLSGAPFMGPIGAARVGWVDGAYVLNPTLDEMKESKMDLVVAGTADAVMMVESEIQELSEEIVLGGVNFAHQQMQAVIDAIIDLAEHAAKEPFAFEPEDTDAIKAKMKDLVGADIAAAYKIQKKQDRYEAVGAAKKKAIAALGLSDENPTGYDPLKLGAIFKELEADVVRRGILDTGLRIDGRDVKTVRPILGEVGILPRTHGSALFTRGETQAIVVATLGTGDDEQFIDALEGTYKESFLLHYNFPPYSVGETGRMGSPGRREIGHGKLAWRALRPMLPTKEDFPYTIRLVSEITESNGSSSMATVCGSSLAMMDAGVPLVRPVSGIAMGLILEQDGFAVLSDILGDEDHLGDMDFKVAGTSEGLTSLQMDIKIAGITPAIMEQALAQAKEGRAHILGEMNKAMDAPRADVGDFAPKIETINIPTDKIREVIGSGGKVIREIVATTGAKVDINDDGVVKVSASDGAKIKAAIDWIKSITDEAEVGKIYDGKVVKVVDFGAFVNFFGAKDGLVHVSQISNERVAKPSDVLKEGQMVKVKLLGFDDRGKTKLSMKVVDQETGEDLSKKEAAAEEA", "notes": "polynucleotide phosphorylase, pnp gene (CC0034), amplified from genomic DNA of C. crescentus strain NA1000 with primers from the start codon to the stop codon; Two alternative constructs were made (GST-PNPase from pGEX-6p-1, GST cut off with PreScission protease; 6xHis-PNPase from pET-DUET); the two tags are not on one chain; also called PNPase; C. crescentus PNPase; source: E. coli, purified …"}}, "key": {"[1]": {"target": "B1", "test": "crystal structure; apo-PNPase co-crystallised with the peptide at 2 : 1 molar excess; rhombohedral (R3) and hexagonal (P6_(3)) forms, sitting drop, 18°C", "settings": "both partners purified"}, "[2]": {"target": "T1, PNPase (polynucleotide phosphorylase) (Caulobacter crescentus, UniProt Q9AC32 1-712)", "T1 sequence": "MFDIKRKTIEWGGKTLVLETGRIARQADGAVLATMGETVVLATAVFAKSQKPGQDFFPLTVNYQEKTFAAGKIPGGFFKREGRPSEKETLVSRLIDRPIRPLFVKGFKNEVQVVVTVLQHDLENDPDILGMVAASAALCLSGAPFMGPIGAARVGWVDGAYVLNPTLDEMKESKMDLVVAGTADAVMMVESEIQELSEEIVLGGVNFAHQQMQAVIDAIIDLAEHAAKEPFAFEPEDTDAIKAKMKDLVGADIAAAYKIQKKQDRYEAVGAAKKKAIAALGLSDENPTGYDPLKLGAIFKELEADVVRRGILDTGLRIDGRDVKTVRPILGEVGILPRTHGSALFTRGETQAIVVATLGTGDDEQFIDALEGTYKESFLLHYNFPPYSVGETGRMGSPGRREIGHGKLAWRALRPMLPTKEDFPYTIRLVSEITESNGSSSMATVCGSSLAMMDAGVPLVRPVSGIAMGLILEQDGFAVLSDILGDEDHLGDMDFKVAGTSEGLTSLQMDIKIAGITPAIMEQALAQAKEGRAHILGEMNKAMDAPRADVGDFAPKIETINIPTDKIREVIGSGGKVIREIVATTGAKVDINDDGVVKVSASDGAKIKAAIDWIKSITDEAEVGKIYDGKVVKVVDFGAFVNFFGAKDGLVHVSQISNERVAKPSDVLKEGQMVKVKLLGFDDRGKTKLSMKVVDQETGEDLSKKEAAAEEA", "test": "X-ray crystallography; co-crystallized with apo-PNPase; same cell and space group (P22121) as endogenous RNA complex; Crystals of RNA-bound PNPase: 24% w/v PEG 3350, 0.1 M bis-Tris pH 5.5, 0.1 M ammonium acetate, 18 C", "settings": "protein: recombinant; tags: 6xHis N-terminal (pET-DUET) or N-terminal GST (pGEX-6p-1) removed with PreScission; chain copies: 3"}, "[3]": {"target": "the molecule itself", "test": "crystal structure; apo-PNPase co-crystallised with the peptide at 2 : 1 molar excess; rhombohedral (R3) and hexagonal (P6_(3)) forms, sitting drop, 18°C"}, "[4]": {"target": "B1", "test": "native gel or EMSA; approximate fourfold molar excess of GST-peptide mixed with PNPase, 20 mM Tris–HCl pH 7.5, 200 mM NaCl, room temperature 10 min, 8 per cent non-denaturing PAGE", "settings": "both partners purified"}}, "data": [{"binder": "EKPRRGWWRR (last 10 amino acids of C. crescentus RNase E; also called GWW peptide; RNase E recognition peptide; source: synthetic peptide (Cambridge Research Biochemicals))", "note": "[C. crescentus PNPase recognition peptide from RNase E (EKPRRGWWRR)]", "values": [{"measurement": "binding result", "setting": "[1]", "value": "binds"}]}, {"binder": "GUUUAUUGCCGUUCUUGUUAUAUGCCUU (ssRNA)", "note": "[27mer MicC portion RNA]", "values": [{"measurement": "binding result", "setting": "[2]", "value": "binds"}]}, {"binder": "B1", "values": [{"measurement": "stoichiometry N", "setting": "[3]", "value": 3}]}, {"binder": "TAPPEKPRRGWWRR (C-terminal PNPase recognition peptide of C. crescentus RNase E, encoded by the 3' end of the rne gene (cc1877); Cloned in pGEX-6p-1 through BamHI and XhoI; also called GST–GWW; GST–GWW peptide; source: E. coli, purified (glutathione sepharose); not shown: GST, N-terminal, kept)", "note": "[GST fused to the PNPase recognition peptide of RNase E (TAPPEKPRRGWWRR)]", "values": [{"measurement": "binding result", "setting": "[4]", "value": "binds"}]}]}
